This note sets out measurements from patent US20260042831A1, “METHODS OF TREATING SARCOIDOSIS WITH A TNF-A ANTIBODY AND ASSOCIATED COMPOSITIONS AND METHODS” (XENTRIA, INC., priority 2022, published 2026).

The experiment addresses FcγRIIb (UniProt P31994). Description: Octet QK384, FcγRIIb on Ni-NTA biosensors, 6 XTMAB-16 concentrations, 1:2 heterogeneous ligand model fit.

Sequence of FcγRIIb (P31994 43-217): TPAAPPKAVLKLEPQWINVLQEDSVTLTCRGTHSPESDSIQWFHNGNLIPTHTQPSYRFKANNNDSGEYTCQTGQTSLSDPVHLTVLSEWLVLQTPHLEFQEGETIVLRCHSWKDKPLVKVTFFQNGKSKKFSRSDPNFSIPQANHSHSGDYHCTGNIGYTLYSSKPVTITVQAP

In turn, XTMAB-16 (antibody) yielded a Kd of 640 nM.
